Measurements from the supplement of paper PMC6757056.
± gives the standard deviation of the averaged measurements.

B1: library; a variant is named by its letters at N, in order (parent)
chain: GCUGUCACCGGUGUAUUACCCUAGUGGUCGACCGGUCUGAUGAGUCUNNNNNNAGACGAAACAGC

Assays:
[1] = variants of: B1; experiment: normalized RNA/DNA level with ligand (relative to sTRSVctl = 100) (log10 (% of sTRSVctl)); ligand: hypoxanthine (xanthine aptamer); higher = less ribozyme self-cleavage, higher mRNA level; conditions: ligand concentration (+) RNA-Seq: 5 mM, HEK293T, reporter: mCherry (pCS4076), ligand present: yes
How it was run: (§1)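 For each 6-well well, 4 µg of library plasmid encoding mCherry-linked ribozyme switches, or eGFP-linked ones in some ligand experiments, was transfected into HEK293T. Any ligand was added 1 h before transfection, and RNA was extracted with EDTA 72 h after it, then reverse-transcribed, amplified, barcoded and sequenced. RNA level was obtained by dividing RNA reads by DNA reads, normalizing to a spiked-in non-cleaving sequence or to the top sequences, then scaling and log-transforming. The top set was 25 sequences, scaling was ×100 with log10, and ≥100 DNA reads were required.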

[2] = variants of: B1; experiment: normalized RNA/DNA level without ligand (relative to sTRSVctl = 100) (log10 (% of sTRSVctl)); ligand: hypoxanthine (xanthine aptamer); higher = less ribozyme self-cleavage, higher mRNA level; conditions: HEK293T, reporter: mCherry (pCS4076), ligand present: no
How it was run: as §1

Row | Variant | normalized RNA/DNA level with ligand (log10) [1] | normalized RNA/DNA level without ligand (log10) [2]
1 | GCUGUCACCGGUGUAUUACCCUAGUGGUCGACCGGUCUGAUGAGUCUCCUGGCAGACGAAACAGC [CCUGGC] | 2.01 ± 0.037 | 1.924 ± 0.00087
2 | GCUGUCACCGGUGUAUUACCCUAGUGGUCGACCGGUCUGAUGAGUCUACUGGCAGACGAAACAGC [ACUGGC] | 1.96 ± 0.036 | 1.844 ± 0.016
3 | GCUGUCACCGGUGUAUUACCCUAGUGGUCGACCGGUCUGAUGAGUCUCCUGGGAGACGAAACAGC [CCUGGG] | 1.94 ± 0.027 | 1.508 ± 0.014
4 | GCUGUCACCGGUGUAUUACCCUAGUGGUCGACCGGUCUGAUGAGUCUACUGGGAGACGAAACAGC [ACUGGG] | 1.859 ± 0.0034 | 1.44 ± 0.086
5 | GCUGUCACCGGUGUAUUACCCUAGUGGUCGACCGGUCUGAUGAGUCUCCUGGUAGACGAAACAGC [CCUGGU] | 1.945 ± 0.014 | 1.88 ± 0.0076
6 | GCUGUCACCGGUGUAUUACCCUAGUGGUCGACCGGUCUGAUGAGUCUGCUGGUAGACGAAACAGC [GCUGGU] | 1.96 ± 0.034 | 1.824 ± 0.013
7 | GCUGUCACCGGUGUAUUACCCUAGUGGUCGACCGGUCUGAUGAGUCUUCUGGUAGACGAAACAGC [UCUGGU] | 1.96 ± 0.031 | 1.69 ± 0.084
8 | GCUGUCACCGGUGUAUUACCCUAGUGGUCGACCGGUCUGAUGAGUCUGCUGUAAGACGAAACAGC [GCUGUA] | 1.9622 ± 0.0015 | 1.901 ± 0.014
9 | GCUGUCACCGGUGUAUUACCCUAGUGGUCGACCGGUCUGAUGAGUCUUCUGUAAGACGAAACAGC [UCUGUA] | 1.95 ± 0.024 | 1.8296 ± 0.0016
10 | GCUGUCACCGGUGUAUUACCCUAGUGGUCGACCGGUCUGAUGAGUCUACUGUAAGACGAAACAGC [ACUGUA] | 1.93 ± 0.062 | 1.78 ± 0.036
11 | GCUGUCACCGGUGUAUUACCCUAGUGGUCGACCGGUCUGAUGAGUCUCCUGUCAGACGAAACAGC [CCUGUC] | 1.989 ± 0.006 | 1.987 ± 0.018
12 | GCUGUCACCGGUGUAUUACCCUAGUGGUCGACCGGUCUGAUGAGUCUGCUGUCAGACGAAACAGC [GCUGUC] | 1.913 ± 0.0099 | 1.84 ± 0.013
13 | GCUGUCACCGGUGUAUUACCCUAGUGGUCGACCGGUCUGAUGAGUCUUCUGUCAGACGAAACAGC [UCUGUC] | 1.96 ± 0.0083 | 1.956 ± 0.011
14 | GCUGUCACCGGUGUAUUACCCUAGUGGUCGACCGGUCUGAUGAGUCUACUGUCAGACGAAACAGC [ACUGUC] | 1.99 ± 0.026 | 1.898 ± 0.0079
15 | GCUGUCACCGGUGUAUUACCCUAGUGGUCGACCGGUCUGAUGAGUCUCCUGUUAGACGAAACAGC [CCUGUU] | 2.04 ± 0.05 | 1.9 ± 0.14
16 | GCUGUCACCGGUGUAUUACCCUAGUGGUCGACCGGUCUGAUGAGUCUGCUGUUAGACGAAACAGC [GCUGUU] | 1.99 ± 0.05 | 1.98 ± 0.058
17 | GCUGUCACCGGUGUAUUACCCUAGUGGUCGACCGGUCUGAUGAGUCUUCUGUUAGACGAAACAGC [UCUGUU] | 1.98 ± 0.035 | 1.88 ± 0.034
18 | GCUGUCACCGGUGUAUUACCCUAGUGGUCGACCGGUCUGAUGAGUCUACUGUUAGACGAAACAGC [ACUGUU] | 1.9396 ± 0.00019 | 1.81 ± 0.05
19 | GCUGUCACCGGUGUAUUACCCUAGUGGUCGACCGGUCUGAUGAGUCUCCUUAAAGACGAAACAGC [CCUUAA] | 1.96 ± 0.034 | 1.85 ± 0.038
20 | GCUGUCACCGGUGUAUUACCCUAGUGGUCGACCGGUCUGAUGAGUCUUCUUAAAGACGAAACAGC [UCUUAA] | 1.87 ± 0.047 | 1.83 ± 0.041
21 | GCUGUCACCGGUGUAUUACCCUAGUGGUCGACCGGUCUGAUGAGUCUCCUUACAGACGAAACAGC [CCUUAC] | 1.94 ± 0.025 | 1.829 ± 0.0071
